Measured values: patent US20250152742A1, “COMPOSITIONS AND METHODS FOR NEUROLOGICAL DISEASES” (Trames Bio, Inc., priority 2022, published 2025)

What was measured:
Assay type in all cases: cell-based
rat hippocampal neurons [1] = assay: Spontaneous action potential firing rate, hippocampal neurons (current clamp)
Protocol: Spontaneous activity was recorded in gapfree mode, in the presence and absence of a compound. Data were acquired at 10 kHz, with Bessel filter at 2 kHz and series resistance compensation at 100%. No holding current was applied to the membrane. […] For Clampfit, threshold-based event detection was run separately for each epoch to detect action potentials. For the custom Python code, a peak-finding package was used to automatically detect action potentials (SciPy). For both methods, minimum height, average height, maximum height were measured and frequency was calculated as the number of events in the epoch divided by the length of time of the epoch. For Clampfit, the resting membrane potential was measured at 3 points between events and averaged for each epoch. […] For both methods, membrane potential was corrected for the calculated liquid junction potential. […]
Hippocampal spontaneous action potential experiments: Hippocampal spontaneous action potentials were recorded in current clamp mode using a potassium-based internal solution containing (in mM): 115 potassium D-gluconate (G4500), 13 potassium chloride (P9333), 1 magnesium chloride hexahydrate (M2670), 5 magnesium ATP (A9187), 10 HEPES (54457), and 0.5 EGTA (3777) (pH=7.2, osmolarity=290-295 mOsm, calculated liquid junction potential=−14.9 mV). Spontaneous activity was recorded in gapfree mode, in the presence and absence of a compound. […]

[2] = test system: engineered chimeric receptor SEQ ID NO: 33 and its mutants (human α7-nAChR ligand binding domain / human GlyRα1 ion pore domain) in Lenti-X 293T cells; assay: YFP fluorescence quenching anion reporter plate reader assay (percent quench, EC50); details: for YFP fluorescence quenching using CNL001 (percent quench): receptor named in row; for YFP fluorescence quenching using Varenicline, 3 nM var: ligand Varenicline 3 nM; for YFP fluorescence quenching using Varenicline, 30 nM var: ligand Varenicline 30 nM; for YFP fluorescence quenching using Varenicline, 300 nM var: ligand Varenicline 300 nM; for YFP fluorescence quenching using Varenicline, 500 nM var: ligand Varenicline 500 nM; for YFP fluorescence quenching using Varenicline, 1 uM var: ligand Varenicline 1 uM
Method in brief: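 Lenti-X 293T cells co-expressing an anion-quenchable YFP were transiently transfected with receptor DNA, then ligand was added in NaI-substituted buffer (pH 7.2) after 30 min at 37 °C. Fluorescence was read about 2 min; percent quench = mean of last 10 s over 15 s pre-ligand baseline.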

rat hippocampal neurons [3] = assay: Evoked rheobase shift, rat hippocampal neurons (current clamp)
Protocol: No holding current was applied to the membrane for cells included in the final datasets. Data acquisition settings and analysis methods were the same as for the DRG rheobase experiments.
Hippocampal neurons: Hippocampal rheobase experiments were performed in current clamp mode using a potassium-based internal solution containing (in mM): 115 potassium D-gluconate (G4500), 13 potassium chloride (P9333), 1 magnesium chloride hexahydrate (M2670), 5 magnesium ATP (A9187), 10 HEPES (54457), and 0.5 EGTA (3777) (pH=7.2 with potassium hydroxide, osmolarity=290-295 mOsm, calculated liquid junction potential=−14.9 mV. NBQX (10 μM) and AP5 (50 μM) were included in the bath to block excitatory synaptic transmission. To measure HC input resistance and rheobase, 500 ms current steps (−200 pA to 700 pA) were applied the membrane in the presence and absence of a compound. No holding current was applied to the membrane for cells included in the final datasets. Data acquisition settings and analysis methods were the same as for the DRG rheobase experiments.

B1: CODA1140: engineered receptor: R101F, L131N, S172D in SEQ ID NO: 33 (protein)
chain: MRCSPGGVWLALAASLLHVSLQGEFQRKLYKELVKNYNPLERPVANDSQPLTVYFSLSLLQIMDVDEKNQVLTTNIWLQMSWTDHYLQWNVSEYPGVKTVFFPDGQIWKPDILLYNSADERFDATFHTNVNVNSSGHCQYLPPGIFKSSCPMDLKNFPMDVQTCKLKFGSWDYGGWSLDLQMQEADISGYIPNGEWDLVGIPGKRSERFYECCKEPYPDVTFTVTMRRRMGYYLIQMYIPSLLIVILSWISFWINMDAAPARVGLGITTVLTMTTQSSGSRASLPKVSYVKAIDIWMAVCLLFVFSALLEYAAVNFVSRQHKELLRFRRKRRHHKSPMLNLFQEDEAGEGRFNFSAYGMGPACLQAKDGISVKGANNSNTTNPPPAPSKSPEEMRKLFIQRAKKIDKISRIGFPMAFLIFNMFYWIIYKIVRREDVHNQ
modifications: synthetic sequence of chimeric LGIC
Firing Rate Spontaneous; Rat Hippocampal Neurons, Baseline (rat hippocampal neurons [1]; baseline, no ligand): 3.29 ± 0.75 Hz | Firing Rate Spontaneous; Rat Hippocampal Neurons, +CNL002 @ EC90 (rat hippocampal neurons [1]; ligand CNL002 at EC90): 0.71 ± 0.29 Hz | YFP fluorescence quenching using CNL001 (percent quench) ([2]; 1 nM CNL001, first column so headed): 52.592% | YFP fluorescence quenching using CNL001 (percent quench) ([2]; 1 nM CNL001, second column so headed): 61.248% | YFP fluorescence quenching (percent quench) ([2]; 1 nM CNL002): 0.337% | YFP fluorescence quenching using CNL001 (percent quench) ([2]; 10 nM CNL001, first column so headed): 71.678% | YFP fluorescence quenching using CNL001 (percent quench) ([2]; 10 nM CNL001, second column so headed): 71.881% | YFP fluorescence quenching (percent quench) ([2]; 10 nM CNL002): 59.894% | YFP fluorescence quenching using CNL001 (percent quench) ([2]; 50 nM CNL001, first column so headed): 73.807% | YFP fluorescence quenching using CNL001 (percent quench) ([2]; 50 nM CNL001, second column so headed): 75.649% | YFP fluorescence quenching (percent quench) ([2]; 50 nM CNL002): 76.501% | YFP fluorescence quenching using ABT-126 (percent quench) ([2]; 50 nM abt (ABT-126)): −7.87% | YFP fluorescence quenching using CNL001 (percent quench) ([2]; 100 nM CNL001, first column so headed): 76% | YFP fluorescence quenching using CNL001 (percent quench) ([2]; 100 nM CNL001, second column so headed): 76.329% | YFP fluorescence quenching (percent quench) ([2]; 100 nM CNL002): 79.03% | YFP fluorescence quenching using ABT-126 (percent quench) ([2]; 100 nM abt (ABT-126)): −5.35% | YFP fluorescence quenching using ABT-126 (percent quench) ([2]; 300 nM abt (ABT-126)): −3.67% | YFP fluorescence quenching using CNL001 (percent quench) ([2]; 1 uM CNL001, first column so headed): 76.168% | YFP fluorescence quenching using CNL001 (percent quench) ([2]; 1 uM CNL001, second column so headed): 74.076% | YFP fluorescence quenching (percent quench) ([2]; 1 uM CNL002): 82.85% | YFP fluorescence quenching using ABT-126 (percent quench) ([2]; 1 uM abt (ABT-126)): 3.64% | YFP fluorescence quenching using ABT-126 (percent quench) ([2]; 10 uM abt (ABT-126)): 5.91% | YFP fluorescence quenching (percent quench) ([2]; 10 uM ach (acetylcholine)): −20.07% | YFP fluorescence quenching (percent quench) ([2]; 30 uM ach (acetylcholine)): −16.92% | YFP fluorescence quenching (percent quench) ([2]; 100 uM ach (acetylcholine)): −25.8% | YFP fluorescence quenching (percent quench) ([2]; 300 uM ach (acetylcholine)): −11.21% | YFP fluorescence quenching (percent quench) ([2]; 1 mM ach (acetylcholine)): 9.02% | YFP fluorescence quenching (percent quench) ([2]; 3 mM ach (acetylcholine)): 45% | YFP fluorescence quenching using Varenicline, 3 nM var ([2]; first column): −6.169 | YFP fluorescence quenching using Varenicline, 3 nM var ([2]; second column): −10.445 | YFP fluorescence quenching using Varenicline, 30 nM var ([2]; first column): −9.679 | YFP fluorescence quenching using Varenicline, 30 nM var ([2]; second column): −10.878 | YFP fluorescence quenching using Varenicline, 300 nM var ([2]; first column): −9.572 | YFP fluorescence quenching using Varenicline, 300 nM var ([2]; second column): −8.873 | YFP fluorescence quenching using Varenicline, 500 nM var ([2]; first column): −14.656 | YFP fluorescence quenching using Varenicline, 500 nM var ([2]; second column): −11.304 | YFP fluorescence quenching using Varenicline, 1 uM var ([2]; first column): −13.996 | YFP fluorescence quenching using Varenicline, 1 uM var ([2]; second column): −16.128 | Rheobase Shift Evoked; Rat Hippocampal Neurons, Baseline (rat hippocampal neurons [3]; baseline, no ligand): 40.63 ± 10.50 pA | Rheobase Shift Evoked; Rat Hippocampal Neurons, +CNL002 @ EC90 (rat hippocampal neurons [3]; ligand CNL002 at EC90): 296.9 ± 72.65 pA
